Data reported in the supplement of paper PMC9170038.

How the values were obtained:
MS2 coat protein [1] = test: apparent KD of MS2 coat protein, switch ON state; designed switch direction (-1 OFF switch, 1 ON switch): -1; higher = weaker reporter binding; details: FMN input: 0 or 200 uM; Eterna round: R93 (includes R88 designs)
In short: (§1)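 For every design, apparent KD is the median of normalised binding-curve fits from its clusters. The RNA switches were transcribed on-chip from Illumina sequencing clusters and titrated with SNAP-549-labelled MS2 coat protein (twofold steps, 0.7 or 1.5 nM to 3 µM; 0.8–1.5 h to 10–20 min per step). Titrations used 100 mM Tris-HCl pH 7.5, 80 mM KCl, 4 mM MgCl2, without or with constant ligand.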

MS2 coat protein [2] = test: apparent KD of MS2 coat protein, switch OFF state (with FMN for OFF switches, without FMN for ON switches); designed switch direction (-1 OFF switch, 1 ON switch): -1; higher = weaker reporter binding; details: FMN input: 0 or 200 uM; Eterna round: R93 (includes R88 designs)
In short: as §1

Sequence | apparent KD of MS2 coat protein (MS2 coat protein [1]) | apparent KD of MS2 coat protein (MS2 coat protein [2])
AAGAAGGGAGGAUAUACAUAAAAGAAAGAAAAGAAAAGAAAACAUGAGGAUCACCCAUGUAGAAGGCCCAAGAA [EteRNA is fun!] | 28.7 nM | 29.3 nM
AAGAAGGGAGGAUAUACUAAAGAAAUGAAAAGAAAUAAAGAACAUGAGGAUCACCCAUGUAGAAGGCCCAAGAA [Nehesy] | 29.7 nM | 24.8 nM
AAGAAGUCAGGAUAUGCCAGAGAACAAGAAAGUGACGAAUAGCAGAAGGGACAUGAGGAUCACCCAUGUAAAGA [Opal 10] | 33.7 nM | 21.9 nM
AAGAAGUGAGGAUAUCGAAGACAGACGAAAAGUCUGUCAAACGAGAAGGCACAUGAGGAUCACCCAUGUGAGAA [What have we learned so far? 64% 2] | 22.6 nM | 38.1 nM
AAGAAGUGAGGAUAUCGAAGACAGACGAAAAGUCUGUCAAACGAGAAGGCACAUGAGGAUCACCCAUGUGGGAA [What have we learned so far? 64% 3] | 69.5 nM | 169 nM
AAGAAGUGAGGAUAUGUCUGUGCGAAAAAAAAAAAGUGCAGACAGAAGGCACAUGAGGAUCACCCAUGUCAAAA [Florian Witold Znaniecki] | 39.4 nM | 39 nM
AAGAAUUCAGGAUAUACAAGGAAGAAAGAAAAGAAAAGAAAACAUGAGGAUCACCCAUGUAGAAGGGAAUAGAA [EteRNA is fun!] | 40 nM | 26.6 nM
AAGACUACAGGAUAUACAUGAGGAUCACCCAUGUAACUGACGGGUAGAUGACGGAGAAGUAGAAGGGUAGUCAA [Ruby 37] | 67.2 nM | 40.6 nM
AAGACUAGAGGAUAUACAUGAGGAUCACCCAUGUAACUGUCAGGAGACUGACGGAGAAGUAGAAGGCUAGUCAA [Mat - Exclusion 3 - JL mod - D84] | 15.8 nM | 19.4 nM
AAGAGUACAGGAUAUAUAUGAAAAGAGUCGAAAGACUCAAAACAUGAGGAUCACCCAUGUAGAAGGGUACUCAA [Hyphema Seclusion Mod 62% 1] | 36.8 nM | 22.9 nM
AAGGUACGAGGAUAUACAUAGAUACAGAUACAUGUAGACGUACAUGAGGAUCACCCAUGUAGAAGGCGUAUAUA [AJ 24] | 46.8 nM | 83 nM
AAGGUAUGAGGAUAUACAUAGAUACAGACACAUGUUCAAGUACAUGAGGAUCACCCAUGUAGAAGGCAUAUAUA [AJ 14] | 24.2 nM | 33 nM
AAGUAUCGAGGAUAUACAUAGAUACAGAUUCAUGUAGAACUACAUGAGGAUCACCCAUGUAGAAGGCGAUAAUA [AJ 33] | 31.8 nM | 79.3 nM
AAUAAACAUGAGGAUCACCCAUGUAAGGAUAUGCGAACAAUAAGAAGACAAUAAUAAAGCAGAAGGUACAAGAG [Ex1 sub 1] | 27 nM | 50 nM
AAUAAACAUGAGGAUCACCCAUGUCAGGAUAUGCACAAACAAACAAACAAACAAGCUAGCAGAAGGGACACUAC [Amethyst 87] | 23.1 nM | 31 nM
AAUAACAGAGGAUAUACUAAAGAAAUGAAAAGAAAUAAAGAACAUGAGGAUCACCCAUGUAGAAGGCUGAAUAA [Sheneh] | 16.9 nM | 21.5 nM
AAUAAGUCAGGAUAUACUAUGUCAGGAGAGAGACUGACUAUGUAGAAGGGACAUGAGGAUCACCCAUGUAAUAA [JR_Exclusion4_Sub5] | 47.4 nM | 36.1 nM
AAUAAGUGAGGAUAUACGAAAUAAAUAAAUAAAUAAAUAAAGUAGAAGGCACAUGAGGAUCACCCAUGUAAUAA [My Mind Is Going Dave] | 34.4 nM | 29.7 nM
AAUAAGUGAGGAUAUGCAAAUAAUAAAUAAAAUAAAAUAAAGCAGAAGGCACAUGAGGAUCACCCAUGUAAAUA [JR_Exc004_Sub001] | 34 nM | 29.5 nM
AAUAAGUGAGGAUAUGGAAAUAAUAAAUAAAAUACCCUAAACCAGAAGGCACAUGAGGAUCACCCAUGUAAAUA [JR_Exc004_Sub003] | 34.1 nM | 28 nM
AAUGCGGCAGGAUAUACAUGAGGAUCACCCAUGUAGAUCAGAUAUAUGGGAAAGCCAUGUAGAAGGGCCGCAAA [Ex 3May 61] | 94.6 nM | 24.8 nM
AAUUCACAUGAGGAUCACCCAUGUAAGGAUAUCGAAAUAAAACUAAUCAAAAAACAAACGAGAAGGUACAAAAA [Exclusion 1 design 7] | 23.6 nM | 26.3 nM
